According to patent US20260226191A1 (SHANDONG SIMCERE BIOPHARMACEUTICAL, published 2026):

How the values were obtained:
[1] = target: T1, human MUC17 on endogenous tumor cells (NUGC4, SNU16, ASPC1) (human); test: cell-based or functional assay
[2] = target: T2, human MUC17 fragment on FlpinCHO-huMUC17-D1 cells (human); test: FACS on FlpinCHO-huMUC17-D1 cells, MFI
T2 construct: On cells; also called cells overexpressing human MUC17

[3] = target: T3, monkey MUC17 on FlpinCHO-cynoMUC17-D1 cells (monkey); test: FACS on FlpinCHO-cynoMUC17-D1 cells, MFI
T3 construct: On cells; also called recombinant cells overexpressing monkey MUC17

[4] = target: T4, Human CD3e-His protein (Sino Biological, CAT #10977-H08H) (human, UniProt P07766 23-126); test: ELISA, human CD3e-His coated on the plate, OD450
T4 construct: Bought reagent; also called human CD3e protein

[5] = target: T5, Human MUC17 ECD4131-his (His-tagged human MUC17 protein extracellular region fusion protein) (human, UniProt Q685J3 4131-4393); test: ELISA, human MUC17-his coated on the plate, OD450
T5 construct: also called human MUC17-his protein; Human MUC17-ECD(4131-4393)-His protein

[6] = target: T1, human MUC17 on endogenous tumor cells …; test: FACS on NUGC4 cells (endogenous human MUC17), MFI
[7] = target: T1, human MUC17 on endogenous tumor cells …; test: FACS on SNU16 cells (endogenous human MUC17), MFI
[8] = target: T1, human MUC17 on endogenous tumor cells …; test: FACS on AspC-1 cells (endogenous human MUC17), MFI
[9] = target: T6, Cyno MUC17 ECD3577-mFc (mFc-tagged cynomolgus monkey MUC17 protein extracellular region fusion protein) (cynomolgus monkey); test: ELISA, cynomolgus MUC17-mFc coated on the plate, OD450
T6 construct: also called monkey MUC17-mFc protein; Monkey MUC17-ECD3577-mFc protein
T6 chain: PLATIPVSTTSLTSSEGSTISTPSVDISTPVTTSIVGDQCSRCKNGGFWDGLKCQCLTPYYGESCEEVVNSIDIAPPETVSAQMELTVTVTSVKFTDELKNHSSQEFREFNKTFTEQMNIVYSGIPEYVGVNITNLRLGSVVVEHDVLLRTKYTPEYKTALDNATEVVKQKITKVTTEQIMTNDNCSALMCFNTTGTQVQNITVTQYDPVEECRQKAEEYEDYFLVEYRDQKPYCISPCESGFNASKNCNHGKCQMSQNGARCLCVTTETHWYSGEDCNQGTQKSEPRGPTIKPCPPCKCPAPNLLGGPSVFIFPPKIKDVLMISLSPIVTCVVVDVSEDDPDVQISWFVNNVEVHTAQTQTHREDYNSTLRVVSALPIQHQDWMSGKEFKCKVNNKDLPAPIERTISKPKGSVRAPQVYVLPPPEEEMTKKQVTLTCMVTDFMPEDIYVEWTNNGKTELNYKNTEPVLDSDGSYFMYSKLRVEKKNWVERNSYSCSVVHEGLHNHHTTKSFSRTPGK

[10] = target: T5, Human MUC17 ECD4131-his (His-tagged …); test: SPR (Biacore 8K), antibody captured on Protein A, antigen injected, 25 C, 1:1 model
[11] = target: T6, Cyno MUC17 ECD3577-mFc (mFc-tagged …); test: as above

T4 sequence (P07766 23-126 limits assumed): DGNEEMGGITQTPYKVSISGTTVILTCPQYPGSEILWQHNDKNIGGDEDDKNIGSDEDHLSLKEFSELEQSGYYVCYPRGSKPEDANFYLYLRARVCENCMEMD

Row | Binder | PBMC-mediated in vitro tumor cell killing EC50, ASPC-1 [1] [nM] | PBMC-mediated in vitro tumor cell killing EC50, NUGC4 [1] [nM] | PBMC-mediated in vitro tumor cell killing EC50, SNU16 [1] [nM] | EC50 (read off the curve) [2] [nM] | EC50 (read off the curve) [3] [nM] | binding result [4] | EC50 (read off the curve) [5] [nM] | EC50 (read off the curve) [6] [nM] | EC50 (read off the curve) [7] [nM] | EC50 (read off the curve) [8] [nM] | EC50 (read off the curve) [9] [nM] | Kd [10] [nM] | koff [10] [s⁻¹] | kon [10] [M⁻¹ s⁻¹] | Kd [11] [nM] | koff [11] [s⁻¹] | kon [11] [M⁻¹ s⁻¹] | binding result [5]
1 | Bis 57 (bispecific antibody, human IgG1, kappa, Three-chain asymmetric MUC17xCD3 bispecific) heavy: EVQLVESGGGVVQPGRSLRLSCAASGFTFTDYYMSWVRQAPGKGLEWVAMSRNKAKGHTIEYSSSVKGRFTISRDNSKNTLYLQMNSLRAEDTAVYYCARDTYESYDGYFDVWGQGTTVTVSSASTKGPSVFPLAPSSKSTSGGTAALGCLVKDYFPEPVTVSWNSGALTSGVHTFPAVLQSSGLYSLSSVVTVPSSSLGTQTYICNVNHKPSNTKVDKKVEPKSCDKTHTCPPCPAPEAAGAPSVFLFPPKPKDTLMISRTPEVTCVVVDVSHEDPEVKFNWYVDGVEVHNAKTKPREEQYNSTYRVVSVLTVLHQDWLNGKEYKCKVSNKALPAPIEKTISKAKGQPREPQVYTLPPSREEMTKNQVSLWCLVKGFYPSDIAVEWESNGQPENNYKTTPPVLDSDGSFFLYSKLTVDKSRWQQGNVFSCSVMHEALHNHYTQKSLSLSPG light: not shown EVQLVESGGGLVQPGRSLRLSCAASGDITRRCMGWFRQAPGKEREGVAGISEDGITIYADSVKGRFTISKDNAKNSLYLQMNSLRAEDTALYSCAASILNRVGCRQLSYEYIYRGQGTMVTVSSGGGDKTHTCPPCPAPEAAGAPSVFLFPPKPKDTLMISRTPEVTCVVVDVSHEDPEVKFNWYVDGVEVHNAKTKPREEQYNSTYRVVSVLTVLHQDWLNGKEYKCKVSNKALPAPIEKTISKAKGQPREPQVYTLPPSREEMTKNQVSLSCAVKGFYPSDIAVEWESNGQPENNYKTTPPVLDSDGSFFLVSKLTVDKSRWQQGNVFSCSVMHEALHNHYTQKSLSLSPG | 0.011 | 0.024 | 0.017 | ~2 | ~8 | binds | ~0.05 | ~1 | ~0.3 | ~0.3 | ~0.04 | 0.289 | 4.86e-05 | 168000 | 4.71 | 0.00016 | 33900 | 
2 | Bis 59 (bispecific antibody, human IgG1, kappa, Three-chain asymmetric MUC17xCD3 bispecific) heavy: EVQLVESGGGVVQPGRSLRLSCAASGFTFTDYYMSWVRQAPGKGLEWVAMSRNKAKGHTIEYSSSVKGRFTISRDNSKNTLYLQMNSLRAEDTAVYYCARDTYESYDGYFDVWGQGTTVTVSSASTKGPSVFPLAPSSKSTSGGTAALGCLVKDYFPEPVTVSWNSGALTSGVHTFPAVLQSSGLYSLSSVVTVPSSSLGTQTYICNVNHKPSNTKVDKKVEPKSCDKTHTCPPCPAPEAAGAPSVFLFPPKPKDTLMISRTPEVTCVVVDVSHEDPEVKFNWYVDGVEVHNAKTKPREEQYNSTYRVVSVLTVLHQDWLNGKEYKCKVSNKALPAPIEKTISKAKGQPREPQVYTLPPSREEMTKNQVSLWCLVKGFYPSDIAVEWESNGQPENNYKTTPPVLDSDGSFFLYSKLTVDKSRWQQGNVFSCSVMHEALHNHYTQKSLSLSPG light: not shown EVQLVESGGGVVQPGGSLRLSCAASGDTFSRGSWGWFRQAPGKEREAVALISSDGWTFYADSVKGRFTISQDNSKNTLYLQMNSLRAEDTAVYYCAASVLVLRTLNPKAWHHWGQGTMVTVSSGGGDKTHTCPPCPAPEAAGAPSVFLFPPKPKDTLMISRTPEVTCVVVDVSHEDPEVKFNWYVDGVEVHNAKTKPREEQYNSTYRVVSVLTVLHQDWLNGKEYKCKVSNKALPAPIEKTISKAKGQPREPQVYTLPPSREEMTKNQVSLSCAVKGFYPSDIAVEWESNGQPENNYKTTPPVLDSDGSFFLVSKLTVDKSRWQQGNVFSCSVMHEALHNHYTQKSLSLSPG | 0.0073 | 0.0166 | 0.0126 | ~1 |  | binds | ~0.05 | ~0.6 | ~0.2 | ~0.2 | ~0.2 | 0.219 | 9.74e-05 | 445000 | 25.6 | 0.000866 | 33900 | 
3 | antiFITCx CD3 negative control (bispecific antibody, human IgG1, kappa, Negative control with the same anti-CD3 arm and an anti-FITC scFv in place of the MUC17 VHH) heavy: EVQLVESGGGVVQPGRSLRLSCAASGFTFTDYYMSWVRQAPGKGLEWVAMSRNKAKGHTIEYSSSVKGRFTISRDNSKNTLYLQMNSLRAEDTAVYYCARDTYESYDGYFDVWGQGTTVTVSSASTKGPSVFPLAPSSKSTSGGTAALGCLVKDYFPEPVTVSWNSGALTSGVHTFPAVLQSSGLYSLSSVVTVPSSSLGTQTYICNVNHKPSNTKVDKKVEPKSCDKTHTCPPCPAPEAAGAPSVFLFPPKPKDTLMISRTPEVTCVVVDVSHEDPEVKFNWYVDGVEVHNAKTKPREEQYNSTYRVVSVLTVLHQDWLNGKEYKCKVSNKALPAPIEKTISKAKGQPREPQVYTLPPSREEMTKNQVSLWCLVKGFYPSDIAVEWESNGQPENNYKTTPPVLDSDGSFFLYSKLTVDKSRWQQGNVFSCSVMHEALHNHYTQKSLSLSPG light: not shown EVKLDETGGGLVQPGRPMKLSCVASGFTFSDYWMNWVRQSPEKGLEWVAQIRNKPYNYETYYSDSVKGRFTISRDDSKSSVYLQMNNLRVEDMGIYYCTGSYYGMDYWGQGTSVTVSSGGGGSGGGGSGGGGSDVVMTQTPLSLPVSLGDQASISCRSSQSLVHSNGNTYLRWYLQKPGQSPKVLIYKVSNRFSGVPDRFSGSGSGTDFTLKISRVEAEDLGVYFCSQSTHVPWTFGGGTKLEIKGGGDKTHTCPPCPAPEAAGAPSVFLFPPKPKDTLMISRTPEVTCVVVDVSHEDPEVKFNWYVDGVEVHNAKTKPREEQYNSTYRVVSVLTVLHQDWLNGKEYKCKVSNKALPAPIEKTISKAKGQPREPQVYTLPPSREEMTKNQVSLSCAVKGFYPSDIAVEWESNGQPENNYKTTPPVLDSDGSFFLVSKLTVDKSRWQQGNVFSCSVMHEALHNHYTQKSLSLSPG |  |  |  |  |  | binds |  |  |  |  |  |  |  |  |  |  |  | no binding
